How the values were obtained:
[1] = system: T1, Ab1 fibrils; assay: Fibril incubation with plasma, quantitative MS/MS of bound proteins; assay type: binding, human; parameters: key to Identification status of plasma protein bound: Ab1: *: Identified, but not quantified; —: Not identified in any of the samples; conditions: for Relative composition of plasma proteins bound: Ab1: 50:1 w/w plasma protein:fibril
T1 construct: Synthetic amyloid β peptide 1–40 was purchased from Caslo Aps (Lyngby, Denmark); purchased Caslo Aps (Lyngby, Denmark); host or cells: synthetic peptide
Procedure: (§1) Plasma and CSF solutions were centrifuged (40,000 g, 20 min) to remove any aggregates. The protein concentration was determined using 280 nm absorbance assuming 1 Abs = 1 mg/mL. Samples with fibril material (20 μg), plasma (500 μg) or CSF (40 μg) proteins were prepared in 200 μL PBS buffer with 5 mM EDTA. Control samples (without fibril material) were prepared similarly. All samples were incubated at room temperature for one hour under gentle agitation. Fibrils and fibril-bound proteins were pelleted by centrifugation at 17,000 g for 30 minutes. The supernatant (175 μL) was removed and the aggregate was re-suspended in 175 μL PBS and pelleted again before further preparation for gel analysis and spin-filter assisted digest for quantitative MS/MS.
(§2) The fibril-protein pellets were transferred to spin-filters (0.22 μm), washed twice in PBS (100 μL) and once in 1 M NaCl (100 μL). The fibrils and fibril-bound proteins were dissolved by one-hour incubation in 100 μL 6 M guanidinium chloride followed by elution from the spin-filter. The eluted proteins were loaded onto a 3 kDa MWCO filter unit for filter-assisted unfolding, reduction, alkylation, and trypsin digestion. In brief, samples were washed twice in 8 M urea, once in 8 M urea with 50 mM DTT, once in 8 M urea with 50 mM iodoaceteamide, and twice in 8 M Urea. The filter units were dried by centrifugation (14,000 g in 30 minutes) after every addition. Trypsin digestion was carried out with 0.25 μg sequencing grade trypsin from Sigma Aldrich in 50 mM ammonium bicarbonate overnight at 37 °C. The tryptic peptides were collected by centrifugation, acidified with TFA (0.1%) and micro-purified using POROS R2 column material (Applied Biosystems) packed in P200 pipette tips (Sarstedt).
(§3) LC-MS/MS analyses were performed on an EASY-nLC II system (Thermo Fisher Scientific) connected to a TripleTOF 5600+ mass spectrometer (Sciex) equipped with a NanoSpray III source (Sciex) and operated under Analyst TF 1.6.0 control.
(§4) The micro-purified tryptic peptides were dissolved in 0.1% formic acid, injected and trapped on an in-house packed trap column (2 cm × 100 μm I.D) with RP ReproSil-Pur C18-AQ 3 μm resin (Dr. Maisch GmbH). Peptides were eluted from the trap column and separated on a 15 cm analytical column (75 μm i.d.) packed in-house in a pulled emitter with RP ReproSil-Pur C18-AQ 3 μm resin (Dr. Maisch GmbH). Elution from the analytical column was performed with a linear gradient from 5% to 35% phase B (90% acetonitrile with 0.1% formic acid) over 20 min for protein identification and 50 min for quantitative analysis, respectively.
(§5) All samples were analysed three times, yielding nine MS/MS experiments for each fibril for both plasma and CSF. For the area-based extracted ion chromatogram (XIC) quantification, the acquisition method was set up as an information-dependent acquisition (IDA) experiment collecting up to 25 MS/MS spectra in each 1.6 sec cycle using an exclusion window of 6 sec.
(§6) XIC quantification was based on the average ion intensity of the three most abundant peptides for each protein. Only proteins quantified in at least four out of nine MS/MS experiments per fibril were included in the quantification. The total ion scores were visualized after grouping the proteins according to function (Figure S11).
(§7) For each MS/MS experiment, the ion intensities of the individual proteins were normalized to the total ion intensity of that MS/MS experiment to achieve a relative protein composition. The contribution of each protein was averaged over all nine MS/MS experiments (Tables 1 and 2).

[2] = system: T2, Ab2 fibrils; assay: as above; assay type: binding, human; parameters: key to Identification status of plasma protein bound: Ab2: *: Identified, but not quantified; —: Not identified in any of the samples; conditions: for Identification status of plasma protein bound: Ab2: symbol cells; for Relative composition of plasma proteins bound: Ab2: 50:1 w/w plasma protein:fibril
T2 construct: Two structurally distinct fibrils of the Aβ(1–40) peptide associated with AD
Procedure: as §1, with “Samples with fibril material (20 μg), plasma (500 μg) or CSF (40 μg) proteins were prepared in 200 μL PBS buffer with 5 mM EDTA.” left out
as §2, §3, §4, §5, §6, §7

[3] = biological target: T3, glucagon fibrils (Homo sapiens, UniProt P01275); assay: as above; assay type: binding; parameters: key to Identification status of plasma protein bound: Glucagon: *: Identified, but not quantified; —: Not identified in any of the samples; conditions: for Relative composition of plasma proteins bound: Glucagon: 50:1 w/w plasma protein:fibril
T3 construct: fibrils of the peptide hormone glucagon
Procedure: as §1, with “Samples with fibril material (20 μg), plasma (500 μg) or CSF (40 μg) proteins were prepared in 200 μL PBS buffer with 5 mM EDTA.” left out
as §2, §3, §4, §5, §6, §7

[4] = biological target: T4, C-36 fibrils (Homo sapiens, UniProt P01009); assay: as above; assay type: binding; conditions: 50:1 w/w plasma protein:fibril
T4 construct: the 36 residue C-terminal fragment of α1-antitrypsin (C-36)
Procedure: as §1, with “Samples with fibril material (20 μg), plasma (500 μg) or CSF (40 μg) proteins were prepared in 200 μL PBS buffer with 5 mM EDTA.” left out
as §2, §3, §4, §5, §6, §7

[5] = biological target: T5, αSN fibrils (Homo sapiens, UniProt P37840); assay: as above; assay type: binding; conditions: 50:1 w/w plasma protein:fibril
Procedure: as §1, with “Samples with fibril material (20 μg), plasma (500 μg) or CSF (40 μg) proteins were prepared in 200 μL PBS buffer with 5 mM EDTA.” left out
as §2, §3, §4, §5, §6, §7

[6] = system: T6, FAS4-AD aggregates; assay: as above; assay type: binding, human; parameters: key to Identification status of plasma protein bound: FAS4-AD: *: Identified, but not quantified; —: Not identified in any of the samples; conditions: for Relative composition of plasma proteins bound: FAS4-AD: 50:1 w/w plasma protein:fibril; for Identification status of plasma protein bound: FAS4-AD: symbol cells
T6 construct: aggregates of a mutated version of the FAS1-4 domain of TGFBIp
Procedure: as §1, with “Samples with fibril material (20 μg), plasma (500 μg) or CSF (40 μg) proteins were prepared in 200 μL PBS buffer with 5 mM EDTA.” left out
as §2, §3, §4, §5, §6, §7

[7] = system: T1, Ab1 fibrils; assay: Fibril incubation with CSF, quantitative MS/MS of bound proteins; assay type: binding, human; conditions: 4:1 w/w CSF protein:fibril
Procedure: as §1, with “Samples with fibril material (20 μg), plasma (500 μg) or CSF (40 μg) proteins were prepared in 200 μL PBS buffer with 5 mM EDTA.” left out
as §2, §3, §4, §5, §6, §7

[8] = system: T2, Ab2 fibrils; assay: as above; assay type: binding, human; conditions: 4:1 w/w CSF protein:fibril
Procedure: as §1, with “Samples with fibril material (20 μg), plasma (500 μg) or CSF (40 μg) proteins were prepared in 200 μL PBS buffer with 5 mM EDTA.” left out
as §2, §3, §4, §5, §6, §7

[9] = biological target: T3, glucagon fibrils; assay: as above; assay type: binding; conditions: 4:1 w/w CSF protein:fibril
Procedure: as §1, with “Samples with fibril material (20 μg), plasma (500 μg) or CSF (40 μg) proteins were prepared in 200 μL PBS buffer with 5 mM EDTA.” left out
as §2, §3, §4, §5, §6, §7

[10] = biological target: T4, C-36 fibrils; assay: as above; assay type: binding; conditions: 4:1 w/w CSF protein:fibril
Procedure: as §1, with “Samples with fibril material (20 μg), plasma (500 μg) or CSF (40 μg) proteins were prepared in 200 μL PBS buffer with 5 mM EDTA.” left out
as §2, §3, §4, §5, §6, §7

[11] = biological target: T5, αSN fibrils; assay: as above; assay type: binding; conditions: 4:1 w/w CSF protein:fibril
Procedure: as §1, with “Samples with fibril material (20 μg), plasma (500 μg) or CSF (40 μg) proteins were prepared in 200 μL PBS buffer with 5 mM EDTA.” left out
as §2, §3, §4, §5, §6, §7

[12] = system: T6, FAS4-AD aggregates; assay: as above; assay type: binding, human; parameters: key to Identification status of CSF protein bound: FAS4-AD: *: Identified, but not quantified; —: Not identified in any of the samples; conditions: symbol cells
Procedure: as §1, with “Samples with fibril material (20 μg), plasma (500 μg) or CSF (40 μg) proteins were prepared in 200 μL PBS buffer with 5 mM EDTA.” left out
as §2, §3, §4, §5, §6, §7

T3 sequence (P01275 53-81 limits assumed): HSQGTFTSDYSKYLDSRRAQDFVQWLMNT
T4 sequence (P01009 383-418 limits assumed): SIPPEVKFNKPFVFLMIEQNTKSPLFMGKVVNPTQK

Row | Substance | Identification status of plasma protein bound: Ab1 ([1]; symbol cells) | Identification status of plasma protein bound: Ab2 [2] | Identification status of plasma protein bound: Glucagon ([3]; symbol cells) | Relative composition of plasma proteins bound: C-36 [4] | Relative composition of plasma proteins bound: αSN [5] | Relative composition of plasma proteins bound: FAS4-AD [6] | Relative composition of plasma proteins bound: Ab1 [1] | Relative composition of plasma proteins bound: Glucagon [3] | Relative composition of plasma proteins bound: αSN ([5]; listed as ApoC-III) | Identification status of plasma protein bound: FAS4-AD [6] | Relative composition of plasma proteins bound: Ab2 [2] | Relative composition of CSF proteins bound: Ab1 [7] | Relative composition of CSF proteins bound: Ab2 [8] | Relative composition of CSF proteins bound: Glucagon [9] | Relative composition of CSF proteins bound: C-36 [10] | Relative composition of CSF proteins bound: αSN [11] | Identification status of CSF protein bound: FAS4-AD [12]
1 | Apolipoprotein C-I: plasma protein bound to fibrils (TPDVSSALDKLKEFGNTLEDKARELISRIKQSELSAKMREWFSETFQKVKEKLKIDS; UniProt P02654 27-83, looked up) | * | * | * | 0.6 ± 0.4 % of total protein | 5.5 ± 2.1 % of total protein | 1.8 ± 0.1 % of total protein |  |  |  |  |  |  |  |  |  |  | 
2 | Apolipoprotein C-III: plasma protein bound to fibrils |  | * |  | 4.9 ± 0.3 % of total protein | 11.7 ± 3.0 % of total protein |  | 0.9 ± 0.1 % of total protein | 0.3 ± 0.0 % of total protein | 11.7 % of total protein | * |  |  |  |  |  |  | 
3 | Coagulation factor IX: plasma protein bound to fibrils |  |  |  | 0.2 ± 0.0 % of total protein | 0.3 ± 0.1 % of total protein |  | 0.2 ± 0.0 % of total protein | 0.1 ± 0.0 % of total protein |  | * | 0.3 ± 0.1 % of total protein |  |  |  |  |  | 
4 | Dickkopf-related protein 3: CSF protein bound to fibrils |  |  |  |  |  |  |  |  |  |  |  | 7.2 ± 0.3 % of total protein | 5.5 ± 2.2 % of total protein | 1.5 ± 0.4 % of total protein | 3.9 ± 1.5 % of total protein | 10.9 ± 1.0 % of total protein | —
5 | Fibrinogen β chain: plasma protein bound to fibrils |  |  |  | 9.1 ± 0.8 % of total protein | 7.7 ± 2.3 % of total protein | 1.8 ± 0.2 % of total protein | 11.8 ± 1.1 % of total protein | 8.9 ± 1.1 % of total protein |  |  | 7.5 ± 0.9 % of total protein |  |  |  |  |  | 
